Data from the DeepSol protein solubility set.

Assay: soluble on expression in E. coli; label from the status in PepcDB or PDB records

Sequence | soluble on expression in E. coli
MGSDKIHHHHHHMDIQKIAKFFEQLQNQDFAQWEDCFGKYDVEFSDDTAETFSQSCDHVVLFNNRLSKVMLLKTSDSILSIGGFQAHNRGKIEAKNRKKTLITIPTQLANDSFGTNRYSLQDNERKPSMGGIYPCKTIFDFSILLSNEIEKSLWGIGEYVGVYFSIIDYSSKYQENFEELIAWTVEQIDELSSLLKREDNRTILRRIASLLTVKCLIMRSNGNHEIGCSIDHSFARYLENKIQIPHGKAVYLGSLLTLLFYPEWEDKGLSLEKLFKIGHYVGITMSDIQYLKTQDFSTLVKEASLLRPKRSFSLDQIQEGEAMRIKKAKERANMITQIWDR | not soluble
TAILVTTRDGTRTEIQAEPGLSLMEALRDAGIDELLALCGGCCSCATCHVLVAPAFADRLPALSGDENDLLDSSDHRTPHSRLSCQITINDKLEGLEVEIAPED | soluble
MEEWKTSFREIYGRSPTAGDISVAPNHIKAILQSEKKENDEKIEEKQAKRGVKRKNFEMKMMEGEQFSPIKKRVNLNQLGSENDKNPIPLRSSPRKKMIAIEVLPEKSMVSPKKKPVGSVPFEFDDFSPVKSYSASTSKSAVKSTLTPIKSPTKRAYQRPLRDLKMLLLPTPEKGQEVEGPVEEFDDETNEDVAKARSYNPAARKLGGSSKSDQNFQKINLRKKQFVRGKVTAEQKRKLKRKQMFKKKY | soluble
MSLTDPLRFVLVPKVVHPWFDKVNDGAKAAAEMLTTTTGRKVTVEYRAPQKADVVEQNDIIARSIATRPDGIFVDLLDEKGNRAVLEEAQEQGIPVTVFDSVAPEGMNLTSIGNDFCEQATIASTRLVELMGGKGEVAIMMGVPTAPNHAIRAKCHEQTFAKYPDIKLVATGIDNDSIETAQKQAAAIMQAHPNLKGWVASDAAGPIGIGQAIKEAGKVGKVFEVGLDDLPDLLALIKEGVVDSSSSTKPEMQGYWAVIATWQKAMGMPTPKYIDTGIAVITKESLAKEGHHHHHH | soluble
MSLIENLWRGICIISASEDAFSAGETIKEKLKSFEIPVVHYRYKDAEIETIWKCYDAIVFVMALEGATRIVCKYAKSKTEDPAIVCIDDKINYVIPLLGGHWGANDIARELSVILNSTPIITTAAEIKGKLSIERIANILIAKIINPENIVKINAALLRDESICIDGIDVNVNFPENIKVNSEECSYIISLRGDKEYKDKIVVWLKPLKISIGIGSKKDVKMEEIRDGIYKVLERLNLKRERIGIIASIREEVKKIADEFNVRFRLVNEEEINNFMNPCLTPPSKTLIEVGLKGVAEISALIAGGRNSKLILRKIAISRNSTIAVATYEGHHHHHH | soluble
MCKNPISIIIRIQHNIKVLPEILKACEQLHPLEIILTINGYIDDSIDIAQSYNCKIITLEEPSELNNCYVIGATKAKGKYLLFLDANYIIQSSLLTQFLQPLLDESADIVLNNLDDFFYQKQKPTIEMIWQQVTNHFFHRPDLHVNSLLFPPYAITKEILDAITPESLLNPILAQMKIIKNKFRISNHFKISIPQIPSFPSKQLIRYHLEAIENWVNILQDSRGNYTDNNRRRDIILELQNGEQRAIPKIITGKKFYSNTYGNKQLSIIIPVQNEEKTIESIIFEVQKLKPLEIIIIVNGSTDKTEELAKNCGATVITYKEALGIDTGRAVGAYFAKGDILLFIDGDFLIPSSDLLPFVQSVQNGTDLALNKLEHYYMYRVPYTIVTACKHVVNLACNRKDLGMGSTTAVPHAFSRKCIDTIGFDSLLSPTLSQVKTILAGLHVQNVHSIDVDKINRVRPEKHFSQEGYLSLATQQIIGDHIEAISYLIEQKRNTEYFLEHHHHHH | not soluble
MGSDKIHHHHHHMQQSQTIYLMGTVIDVFVDHEESEKILEEVHQRLITYEQRFSANDSTSELMAVNQQAGQKPVSVHPELYQLIALGKKHSCDPASHLNVTIGPLVQTWRIGFKDARVPSEEEIKACLKKINPEKIHLNPLKQTVFLEEEGMKLDLGALAKGYIADLLIAYLKEVHVTSALINLGGNIVTLGPSTHQNKKWRIGIRNPQESRETISLLVEVANQSVVTSGIYERSLTEAGRVYHHLLDPTTGYPLETEMASLTIISDASVDGEIWTTRLFGYPIPEALEILNQLDGIEGVIITQDQQILYSSGLADTLHIIHS | not soluble
MGSDKIHHHHHHMADKPFRLVTRSDFDGLVCATLLKELALIDEITFVHPKDMQDGQIPVTERDITTNLPYVEGVHLCFDHHLSETIRVGKKANHIIDPLAPSAARVVYNYFGGKARFPRIPDDMMDAVDKGDSAQYNMEEVLHPGGWELLNFLMDARTGLGRFREFRIPNYQLMMELIDYCRDHAIEDILDLPDVSERVDLYREHEPRFKEQLKRCSTVHGNLVVLDLRDEDPIWAGNRFMIYALYPETNISIHVLWGRERRNTVFAVGKSIFNRSSNTNIGELMLGYGGGGHHAAGTCQVDNAQAADVLARLIARITEDG | not soluble
MGLFDRIKRVVSANLNDLVNKAEDPEKMLEQAILEMQEDLVQLRQGVAQAIAAQKRTEKQYSDAQNEINKWQRNAQLALQKGDENLARQALERKKTYTETGTALKTSLDQQSTQVETLKRNLIQLESKISEAKTKKEMLKARITTAKAQEQLEGMVRGMNSSSAMAAFERMEEKVLMQEARAQSAAELAGADLETQFARLESGSDVDDELAALKASLAPAPEQNLLPPQQQEQQSTAPKSKEVVDSELDALRKQLDQL | not soluble
MAHHHHHHMLLRASASSTLRTRGASCCSGACTGLYGSGSLTVQQRFIEYWGSGVTGRTQPYAQGDMIPRVDNMRYPVNKATSAAASLTGNQSSIAYDTSSIFQVEGFSPLEKEHYQSLRGSTRHKVESLPPHIGKDVMVLLKNMSEEGLLEEHWWARVVKDFPSMKTPCTAEFKSAWEKFYTEASGVADDNEAVKAISRPFLQTQMQKNYIAYAMVWRVAERLCEAFDAVPHVTVYERRGGRLVVERVTKLMLDTIADEPWAHQETTSPLHVDISNFRAWHEAGYW | not soluble
MRQVTIPLIQSKSMFCVIYRSSKRDQTYLYVEKKDDFSRVPEALMKGFGQPQLAMMLPLDGRKKLVNAELEKVKQALSEQGYYLQLPPPPEDLLKQHLSSVGQNTSPADR | not soluble
MGSDKIHHHHHHMRMAQVVLENVTKVYENKVVAVKNANLVVEDKEFVVLLGPSGCGKTTTLRMIAGLEEITDGKIYIDGKVVNDVEPKDRDIAMVFQNYALYPHMTVYENMAFGLKLRKYPKDEIDRRVREAAKILGIENLLDRKPRQLSGGQRQRVAVGRAIVRNPKVFLFDEPLSNLDAKLRVQMRSELKKLHHRLQATIIYVTHDQVEAMTMADKIVVMKDGEIQQIGTPHEIYNSPANVFVAGFIGSPPMNFVNARVVRGEGGLWIQASGFKVKVPKEFEDKLANYIDKEIIFGIRPEDIYDKLFALAPSPENTITGVVDVVEPLGSETILHVKVGDDLIVASVNPRTQAKEEQKIDLVLDMTRMHAFDKETEKAII | not soluble
MGSDKIHHHHHHMRNCIIAQSGGPTAVINASAVGIYEKNLETKYFDKVYFGINGIEGILNKNIIDSDSLNKDNVLNLKQTPSSGLGSCRYKLADYKINSYDYDRVINILDEYEIDTLFYIGGNDSMDTVMKFSQYCKNTTCKIKFIGIPKTIDNDLLGTDNCPGFGSAAKLISTLIMETYLDFSIYKNNGIFIVETMGRDTGWLAASSSLARLNDTPLVDLIYLPEIDFYEDKFIEDVRKIFKEKNKAYIVASEGIRDKYGNFICEQKTSAHDKFGHSQLGGVSNYLKNLIVSSSITTRVKTLELGVIQRCAMHLASDTDLKQAAEVGAYGIELSKKGYTGVMAIINRTCNNPYKYEVSHTDISKIANKTKYFPKEWINEECNYITDEALNYLYPLIQGKPDIKYKNGLPYFSIIY | not soluble
MSFTVIIPARFASSRLPGKPLADIKGKPMIQHVFEKALQSGASRVIIATDNENVADVAKSFGAEVCMTSVNHNSGTERLAEVVEKLAIPDNEIIVNIQGDEPLIPPVIVRQVADNLAKFNVNMASLAVKIHDAEELFNPNAVKVLTDKDGYVLYFSRSVIPYDRDQFMNLQDVQKVQLSDAYLRHIGIYAYRAGFIKQYVQWAPTQLENLEKLEQLRVLYNGERIHVELAKEVPAVGVDTAEDLEKVRAILAANGSHHHHHH | soluble
MSVVSNHHSNGNGNSTVYDTNGNDEIKKEVKDEPMASDSEVPFGELMKRDKKEKKQKKRKAESGSDEDDYKPEKRKSSAKNGKKKDVGSDSEDDYKPEKKKSKKNNKKKAQESSEDDDEESEGDVSEEDVKPQIHSDDELEEEDEAPTTDDEEEQKRKEKERRKKEKREKKERKEKKRLEKENRKIKEEDDEDSDDEDDEKAKKKKRKSKGAEKSKPSTSKKDAGGKKEPPKKKVKKEEDIEDIWEWWKEEKKPAGVKWNSLQHCGPLFAPPYIPLPSHVHFKYGGEKMKLTLETEEIAQFYAGVLDHEYSTKEAFNKNFMKDWRKVMTVEERERIHDLKKCDFRAIDAYQKEQREIRKAMTKEEKLKIKEEKEAEVKIYGIAIIDGHRQKVANFRIEPPGVFRGRGGHPKMGLIKKRIMPEDVIINCGKDTEIPKPPPGHKWKEVRHDNTVTWLCSWTESVLGQNKYIMLNPSSKIKGEKDFEKYETARRLKKKIGGIRERYTDDFKSKEMRVRQRATALYFIDKLALRAGNEKDVDEAADTVGCCSLRVEHIKLFDSAKLNEDDKKEKEFVVEFDFLGKDSIRYFNRVSVEKRVYKNLKIFMEGKAPSDDLFDRLDTATLNDHLRSLMDGLTVKVFRTYNASITLQEQLIKLTNPKDNVAAKILSYNRANRQVAILCNHQRAVSKGFDESMQKLEQKIKDKKKEVKEAEAALKSARGAEKEKAQKKYDRLKEQLKKLKISRTDKDENKQIALGTSKLNYIDPRITVAWCKKFEVPLEKVFTKTHREKFRWAIDMTNSSDEEYVF | soluble
GHMIKGEQKRYSEMTKEELQQEIAMLTEKARKAEQMGMVNEYAVYERKIAMAKAYMLNPADFHPGEIYEIEGAPGEYFKVRYLKGVFAWGWRLKGNGEEEALPISLLRKPNLPQS | soluble
MGSDKIHHHHHHMLAQGQRFEGLLCGDDSSRCEVVEMAKLTQFLISGACALLITATSAIADPIAPAGKAIGQDGGGHTIYQVDANGISIGYKLIGQGAPMVMIMGLGGTADNWPPQVIEALSKNHQLILMDNRGMGHTTANDTPFSYPLFAADVIGLLDALGIKRSDVLGYSMGSTITQQLLLQYPDRFNKALIHATSTDGSNVAKALHGRVPTDPIVARQVEATTHWKTPLDKLPSIDNQVMLVVGTADNVVGTESSKTIASAIPGAWLVQFKGATHHLMYETPEGFSAAALTFFETNETVTPKIEPNASVAPPPTQP | not soluble
MRLLLAAPHSGAGKTTVSLALLLALRARGLRVQPFKVGPDYIDPTHLEKAAARRPYNLDGFFLDETGLLALFRHGARGADFALIEGVMGLFDGKDPRGEVGSTAQVARLLKAPVALVVDAKGMAGSIAPLALGFRDFHPGVRVVGVFANRVGSERHAEILKEALKAVGLPLLGWLPQDPALALPERHLGLVLAGEVAPPLEALRRAFRVDLEGVLRLAASAPPLPEARPFLPPRRPPRARVAYAWDKAFSFYYPEALELLEALGAELVPFSPLEDEALPKAHALLLGGGYPELFAERLSANVALREAIRRFPGPIVAECGGYMYLSQGLWVGERFFPMVGLVPGEARMAERPVLGYREVEALRDSPVARKGQAFKGHEFHYARLPASPSPAWRRLGGEEVEGYTDGRVLASFVHLYLPAKPEGVERLLGLASRGKAAGAS | soluble
